Experimental data from publication PMC8494430, “Development of a fluorogenic ADAMTS-7 substrate” (Journal of Enzyme Inhibition and Medicinal Chemistry, 2021).
Like-named read-outs stand apart in the source and are kept apart here. Each block holds one molecule with its values, some of them ahead of it.

Columns and labels:
[1] = Appearance of solution upon dilution of peptide in assay buffer (solubility); format: physicochemical; settings: 10 mM DMSO stock diluted in assay buffer
Protocol: The cleavage sites ^193Arg↓Ala^194 and ^195Glu↓Ala^196 were chosen to design the FRET substrate ATS7FP0 (Table 1). This peptide covers residues Ala^188-Ala^198 in LTBP4S and contains a FAM/TAMRA fluorophore/quencher pair. The quencher is covalently linked to the ε amino group of an extra C-terminal lysine residue. Stock solutions were routinely prepared at 10 mM in DMSO and stored at −80 °C. […] This was most likely due to the high content in hydrophobic amino acids of this peptide, which added to the hydrophobicity of the fluorophore/quencher pair. Nevertheless, ATS7FP0 generated fluorescence upon cleavage by ADAMTS-7 (Figure 2(A)). With the aim to improve both solubility and cleavage rate by ADAMTS-7, seven additional peptides were designed using the sequence of ATS7FP0 as a starting point. The N-terminal alanine residue present in ATS7FP0 was removed to generate peptide ATS7FP7 with a reduced aliphatic index (Table 1). […] To assess the effect of a P4′ proline residue on the cleavage rate, peptide ATS7FP7 was modified to generate ATS7FP8. […] Since we also determined that ADAMTS-7 prefers arginine in P1 (Figure 1(D)), we mutated one alanine residue in the parental sequence into arginine with the aim to improve both cleavage rate and hydrophilicity, thus generating peptide ATS7FP3. […]

[2] = target: ADAMTS7-T8 (recombinant human ADAMTS-7 construct lacking the C-terminal PLAC domain) (human) (UniProt Q9UKP4)
ADAMTS7-T8 (recombinant human ADAMTS-7 construct lacking the C-terminal PLAC domain) (human), sequence (Q9UKP4 28-1686): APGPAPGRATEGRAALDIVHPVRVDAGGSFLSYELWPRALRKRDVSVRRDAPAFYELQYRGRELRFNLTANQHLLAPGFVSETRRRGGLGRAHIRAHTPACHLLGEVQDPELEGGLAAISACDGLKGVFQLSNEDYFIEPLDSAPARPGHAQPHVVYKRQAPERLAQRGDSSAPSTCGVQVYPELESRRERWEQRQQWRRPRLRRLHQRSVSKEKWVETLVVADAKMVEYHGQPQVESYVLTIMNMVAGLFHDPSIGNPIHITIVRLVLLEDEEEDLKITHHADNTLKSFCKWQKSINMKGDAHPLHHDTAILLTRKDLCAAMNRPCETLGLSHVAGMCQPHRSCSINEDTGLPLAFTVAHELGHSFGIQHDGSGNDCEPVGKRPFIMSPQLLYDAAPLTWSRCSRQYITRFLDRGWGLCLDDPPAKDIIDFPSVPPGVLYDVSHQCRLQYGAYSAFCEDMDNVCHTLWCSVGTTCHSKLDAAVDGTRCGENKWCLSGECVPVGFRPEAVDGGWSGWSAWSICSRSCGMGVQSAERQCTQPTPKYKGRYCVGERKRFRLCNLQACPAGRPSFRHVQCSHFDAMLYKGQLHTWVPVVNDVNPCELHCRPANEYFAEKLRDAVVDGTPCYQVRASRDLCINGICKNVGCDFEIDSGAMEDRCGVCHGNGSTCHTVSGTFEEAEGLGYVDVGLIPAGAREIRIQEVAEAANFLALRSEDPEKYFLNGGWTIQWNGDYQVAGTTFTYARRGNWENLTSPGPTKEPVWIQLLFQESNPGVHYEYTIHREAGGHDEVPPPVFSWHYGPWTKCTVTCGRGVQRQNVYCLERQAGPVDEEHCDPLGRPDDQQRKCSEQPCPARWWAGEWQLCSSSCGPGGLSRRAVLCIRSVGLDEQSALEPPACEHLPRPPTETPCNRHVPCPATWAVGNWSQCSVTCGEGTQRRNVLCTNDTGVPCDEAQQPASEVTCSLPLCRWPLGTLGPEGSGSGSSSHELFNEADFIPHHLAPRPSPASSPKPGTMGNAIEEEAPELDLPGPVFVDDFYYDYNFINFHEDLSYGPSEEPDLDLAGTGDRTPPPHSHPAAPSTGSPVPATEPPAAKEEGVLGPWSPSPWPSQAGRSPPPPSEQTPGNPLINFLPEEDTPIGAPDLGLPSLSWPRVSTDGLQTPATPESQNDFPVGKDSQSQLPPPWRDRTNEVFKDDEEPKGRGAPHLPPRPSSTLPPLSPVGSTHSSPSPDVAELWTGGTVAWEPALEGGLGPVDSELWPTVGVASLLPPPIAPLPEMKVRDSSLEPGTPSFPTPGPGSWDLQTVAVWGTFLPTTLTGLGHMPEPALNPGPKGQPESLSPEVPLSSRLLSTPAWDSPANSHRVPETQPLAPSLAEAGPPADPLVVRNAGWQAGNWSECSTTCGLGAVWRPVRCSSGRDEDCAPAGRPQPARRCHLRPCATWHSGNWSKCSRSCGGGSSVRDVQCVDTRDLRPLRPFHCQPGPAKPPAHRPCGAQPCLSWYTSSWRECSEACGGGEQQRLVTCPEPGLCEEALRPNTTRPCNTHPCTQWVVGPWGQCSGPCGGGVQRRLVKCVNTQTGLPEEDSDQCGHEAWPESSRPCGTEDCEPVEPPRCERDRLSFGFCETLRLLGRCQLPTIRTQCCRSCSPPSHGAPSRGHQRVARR

ADAMTS-7 [3] = target: T1, ADAMTS-7 (Homo sapiens, UniProt Q9UKP4); experiment: Inhibition of ADAMTS-7 cleavage of FRET substrate ATS7FP7; format: biochemical
T1 construct: the recombinant construct ADAMTS7-T8, which lacks the C-terminal PLAC domain; made in house
T1 sequence (Q9UKP4 237-1631 limits assumed): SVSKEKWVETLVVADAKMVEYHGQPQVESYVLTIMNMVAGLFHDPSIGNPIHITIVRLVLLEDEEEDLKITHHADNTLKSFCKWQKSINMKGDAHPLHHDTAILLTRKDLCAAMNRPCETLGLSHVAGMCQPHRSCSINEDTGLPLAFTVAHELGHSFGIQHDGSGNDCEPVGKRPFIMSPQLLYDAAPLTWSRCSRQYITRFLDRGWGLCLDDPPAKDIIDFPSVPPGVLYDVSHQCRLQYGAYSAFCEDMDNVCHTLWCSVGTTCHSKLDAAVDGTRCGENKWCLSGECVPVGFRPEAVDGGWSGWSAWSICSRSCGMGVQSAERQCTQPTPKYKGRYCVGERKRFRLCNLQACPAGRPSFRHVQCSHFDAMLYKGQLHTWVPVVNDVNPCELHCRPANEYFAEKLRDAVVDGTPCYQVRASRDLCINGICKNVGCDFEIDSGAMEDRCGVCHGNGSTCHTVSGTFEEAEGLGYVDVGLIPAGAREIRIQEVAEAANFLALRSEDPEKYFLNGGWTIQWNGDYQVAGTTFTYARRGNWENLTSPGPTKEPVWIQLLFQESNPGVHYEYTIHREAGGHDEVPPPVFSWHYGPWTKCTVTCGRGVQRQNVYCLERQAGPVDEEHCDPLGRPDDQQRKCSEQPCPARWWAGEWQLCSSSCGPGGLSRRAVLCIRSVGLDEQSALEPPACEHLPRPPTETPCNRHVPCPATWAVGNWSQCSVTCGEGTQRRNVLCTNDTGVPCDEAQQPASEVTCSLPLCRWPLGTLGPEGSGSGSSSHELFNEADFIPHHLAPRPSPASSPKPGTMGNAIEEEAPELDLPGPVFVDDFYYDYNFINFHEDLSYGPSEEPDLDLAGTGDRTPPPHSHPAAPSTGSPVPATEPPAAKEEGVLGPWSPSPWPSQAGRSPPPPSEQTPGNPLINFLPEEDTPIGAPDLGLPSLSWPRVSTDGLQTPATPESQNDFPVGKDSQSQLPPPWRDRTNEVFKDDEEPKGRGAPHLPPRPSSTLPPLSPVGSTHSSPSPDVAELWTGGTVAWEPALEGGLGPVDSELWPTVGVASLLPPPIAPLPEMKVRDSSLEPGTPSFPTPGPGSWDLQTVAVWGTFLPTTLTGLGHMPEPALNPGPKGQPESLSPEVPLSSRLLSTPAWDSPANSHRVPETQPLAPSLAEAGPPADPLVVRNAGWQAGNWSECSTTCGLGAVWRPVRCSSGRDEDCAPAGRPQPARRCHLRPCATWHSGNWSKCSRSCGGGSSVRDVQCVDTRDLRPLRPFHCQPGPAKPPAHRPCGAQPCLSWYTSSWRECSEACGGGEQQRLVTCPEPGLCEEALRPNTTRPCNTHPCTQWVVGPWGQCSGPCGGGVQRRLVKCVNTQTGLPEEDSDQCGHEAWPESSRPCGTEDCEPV
Protocol: All enzyme assays were conducted in TNC-B buffer (50 mM Tris- HCl, pH 7.5, 150 mM NaCl, 10 mM CaCl2, and 0.02% NaN3) at 37 °C in 384 well plates (Cat. No: 784900, Greiner Bio-One, Austria). To avoid the formation of inhibitor or peptide aggregates, the detergent Brij-35 (0.05%) was added to TNC-B[13]. For inhibition studies, stock solutions of chemical compounds were prepared in dimethyl sulfoxide (DMSO) (10 mM). […] Blank samples were prepared using buffer only and the rate of cleavage for blank reactions was subtracted from the rates measured in the presence of enzyme. Upon addition of the indicated ADAMTS-7 FRET substrates (40 µM), the fluorescence was measured immediately using a FLUOstar Omega microplate reader (BMG Labtech, Germany) with an excitation filter wavelength of 485 nm and an emission filter wavelength of 520 nm.

ADAMTS-7 [4] = target: T1, ADAMTS-7; settings: read-out: Ki app for inhibition of cleavage of LTBP4; cited from earlier work
[5] = target: ADAMTS7-T8 (recombinant human ADAMTS-7 construct lacking the C-terminal PLAC domain) (human) (UniProt Q9UKP4); experiment: enzyme inhibition assay (cleavage of a FRET peptide); ADAMTS-7 (5 nM) pre-incubated 1 h at 37 °C with TIMP-4, then ATS7FP7 (40 µM) added; TNC-B buffer (50 mM Tris-HCl pH 7.5, 150 mM NaCl, 10 mM CaCl2, 0.02% NaN3) with 0.05% Brij-35; 384 well plates; apparent Ki from the Morrison equation for tight binding inhibitors

- appearance of solution upon dilution in the assay buffer (solubility) [1]: non-homogenous
Molecule: Ala-Glu-Ala-Ala-Ala-Arg↓Ala-Glu↓Ala-Ala-Ala-Lys [ATS7FP0]

- IC50 of inhibition of ADAMTS-7 cleavage of the FRET peptide substrate ATS7FP7 [2]: 18 nM
- Ki (ADAMTS-7 [3]; 5 nM ADAMTS-7, Morrison equation for tight binding inhibitors, read-out: Ki app (ATS7FP7 substrate)): 3.2 ± 1 nM
- IC50 (ADAMTS-7 [3]; ATS7FP7 40 μM, 1 h preincubation, 37 °C): 18 ± 6 nM
- Ki [5]: 3.2 nM
B1: Recombinant human tissue inhibitor of metalloproteinase (TIMP)-4 (natural protein)
chain: CSCAPAHPQQHICHSALVIRAKISSEKVVPASADPADTEKMLRYEIKQIKMFKGFEKVKDVQYIYTPFDSSLCGVKLEANSQKQYLLTGQVLSDGKVFIHLCNYIEPWEDLSLVQRESLNHHYHLNCGCQITTCYTVPCTISAPNECLWTDWLLERKLYGYQAQHYVCMKHVDGTCSWYRGHLPLRKEFVDIVQP
- Ki (ADAMTS-7 [4]): 13 nM
